In patent publication US20170291948A1 one finds cell migration of U87MG cells (transwell), untreated control = 100% and Kd data, which are given here for two molecules.

For orientation: Kd means the constant that tells how readily two partners part at equilibrium. A high value points to a looser complex.

Assay [1] concerns the target NRP1 expressed on the surface of cancer cells (NRP1-overexpressing patient-derived cells; U87MG glioblastoma cell line) (human) (UniProt O14786). In words: cell-based or functional assay.
In assay [2] the target is human NRP1 protein (human) (UniProt O14786). Description: SPR, Biacore T100. (SPR reads the build-up and loss of mass on a sensor chip optically.)
human NRP1 protein (human), sequence (O14786 other isoform, or with tags, fused parts or gaps limits assumed): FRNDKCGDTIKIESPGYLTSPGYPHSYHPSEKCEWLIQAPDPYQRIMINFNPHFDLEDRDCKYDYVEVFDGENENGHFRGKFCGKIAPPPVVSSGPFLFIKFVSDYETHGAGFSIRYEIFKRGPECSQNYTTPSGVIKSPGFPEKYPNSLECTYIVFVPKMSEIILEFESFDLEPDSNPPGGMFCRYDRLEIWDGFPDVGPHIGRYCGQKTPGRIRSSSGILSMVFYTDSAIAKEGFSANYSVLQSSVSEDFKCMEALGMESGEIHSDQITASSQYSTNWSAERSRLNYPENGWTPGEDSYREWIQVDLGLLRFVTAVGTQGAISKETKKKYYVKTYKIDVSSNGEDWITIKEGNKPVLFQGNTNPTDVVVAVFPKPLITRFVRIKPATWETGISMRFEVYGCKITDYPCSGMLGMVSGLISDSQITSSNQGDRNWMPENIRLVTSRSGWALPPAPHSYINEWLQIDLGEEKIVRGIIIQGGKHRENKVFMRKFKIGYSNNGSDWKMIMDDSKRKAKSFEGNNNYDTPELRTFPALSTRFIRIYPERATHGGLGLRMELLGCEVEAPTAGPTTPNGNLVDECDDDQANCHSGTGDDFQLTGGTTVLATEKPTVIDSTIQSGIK

NRP1 expressed on the surface of cancer cells (NRP1-overexpressing patient-derived cells; U87MG glioblastoma cell line) (human), sequence (O14786 22-923): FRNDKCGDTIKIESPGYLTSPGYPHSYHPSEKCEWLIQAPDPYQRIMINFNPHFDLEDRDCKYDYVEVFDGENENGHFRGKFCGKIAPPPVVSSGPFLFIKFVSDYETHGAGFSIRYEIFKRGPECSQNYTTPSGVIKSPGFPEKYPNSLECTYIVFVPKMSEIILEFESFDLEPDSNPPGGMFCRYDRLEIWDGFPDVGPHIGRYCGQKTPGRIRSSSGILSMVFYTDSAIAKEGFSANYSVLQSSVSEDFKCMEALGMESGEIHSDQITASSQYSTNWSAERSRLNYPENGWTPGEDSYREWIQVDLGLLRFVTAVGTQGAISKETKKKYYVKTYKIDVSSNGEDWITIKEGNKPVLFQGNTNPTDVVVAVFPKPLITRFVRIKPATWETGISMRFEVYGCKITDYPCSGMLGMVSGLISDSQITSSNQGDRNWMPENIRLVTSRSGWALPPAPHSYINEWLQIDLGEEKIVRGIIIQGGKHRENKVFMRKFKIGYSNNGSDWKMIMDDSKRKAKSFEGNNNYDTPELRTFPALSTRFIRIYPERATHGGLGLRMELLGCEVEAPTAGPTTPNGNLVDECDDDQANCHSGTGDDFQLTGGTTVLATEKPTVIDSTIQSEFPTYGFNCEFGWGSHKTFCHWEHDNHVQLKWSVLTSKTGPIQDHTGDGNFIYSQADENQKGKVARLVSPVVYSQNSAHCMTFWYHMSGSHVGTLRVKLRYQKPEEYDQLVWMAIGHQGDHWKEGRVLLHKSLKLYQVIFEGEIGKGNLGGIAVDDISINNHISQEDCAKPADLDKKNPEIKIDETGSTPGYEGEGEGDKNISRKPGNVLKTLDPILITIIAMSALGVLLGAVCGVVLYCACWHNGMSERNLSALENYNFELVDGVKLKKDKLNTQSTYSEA

B1: 1A03 scFv antibody fragment (scFv, part only; not given: linker, domain order, His and HA tags, V domains shown, not shown: another chain or arm of the molecule; large carriers; small tags and cut ends)
VH: EVQLLESGGGLVQPGGSLRLSCAASGFTFSSYYMSWVRQAPGKGLEWVSAISPGSSNKYYADSVQGRFTISRDNSKNTLYLQMNSLRAEDTAVYYCARRKKSFDYWGQGTLVTVSS
VL: QSVLTQPPSASGTPGQRVTISCSGPSSNIGNNDVSWYQQLPGTAPKLLIYSDNNRPSGVPDRFSGSKSGTSASLAISGLRSEDEADYYCGAWVASLSAYVFGGGTKLTVL
B1 yielded a cell migration of U87MG cells (transwell), untreated control = 100% in assay [1] of 41%. The molecule also displayed a Kd in assay [2] of 89.4 nM.

B2: 3H10 scFv antibody fragment (scFv, part only; not given: linker, domain order, His and HA tags, V domains shown, not shown: another chain or arm of the molecule; large carriers; small tags and cut ends)
VH: EVQLLESGGGLVQPGGSLRLSCAASGFTFSSYYMSWVRQAPGKGLEWVSAISPGSSNKYYADSVKGRFTISRDNSKNTLYLQMNSLRAEDTAVYYCARRKYMFDYWGQGTLVTVSS
VL: QSVLTQPPSASGTPGQRVTISCTGSSSNIGNNDVYWYQQLPGTAPKLLIYSDSNRPSGVPDRFSGSKSGTSASLAISGLRSEDEADYYCASWDSSLSGYVFGGGTKLTVL
B2 gave a cell migration of U87MG cells (transwell), untreated control = 100% in assay [1] of 46%. The equilibrium dissociation constant (Kd) in assay [2] stood at 295 nM.
